Experiment [1] concerns the target T1, human TMEM106B (human, UniProt Q9NUM4 2-274).
T1 construct: Full-length, on transiently transfected HEK293 cells, or natively expressed on HeLa, U251 and A549 cells; also called huTMEM106B; huTMEM
Description: FACS HEK+huTMEM, 1.0 ug/ml.
Description: (§1) Purified anti-TMEM106B antibodies were evaluated for their binding affinity to various TMEM106B-expressing cell lines including HEK293 transiently transfected with human/cyno/mouse TMEM106B, as well as HeLa cells and A549 cells. Antibodies tested for this experiment were mouse IgGs purified from hybridoma supernatant. Affinity binding to cells was determined as follows. Briefly, 1x10^5 cells were aliquoted per well in 96-well round bottom plates and incubated with 50 µL of purified anti-TMEM106B antibody at various concentrations (10x dilutions starting at 10 µg/ml) in FACS buffer (PBS + 2% FBS + 1 mM EDTA). […] Sorting was performed on a iQue (Intellicyt), with sort gates drawn to exclude dead (propidium iodide +) cells. Binding data was analyzed using median fluorescent intensity (MFI) and graphed in Prism. Values presented are MFI.

Experiment [2] concerns the target T1, human TMEM106B. The experiment is described as follows: FACS A549, 10 ug/ml.
Description: as §1
In experiment [3] the target is T1, human TMEM106B. The experiment is described as follows: FACS HeLa.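 Also: flow cytometry of cells incubated with hybridoma supernatant or purified antibody at 10 µg/ml for 1 h on ice, propidium iodide–positive dead cells gated out.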
Description: (§2) All cells were cultured in either T75 or T150 flasks. […] The enzyme was quenched by addition of fresh media, and the cells were then distributed into 96-well plates for FACS analysis.
(§3) FACS analysis was performed as follows. Each cell type was aliquoted in 96-well round bottom plates (2x10^5 cells per well), washed once with FACS buffer (PBS + 2% FBS + 1 mM EDTA), and incubated with 50 µL of hybridoma supernatant or purified antibody (10 µg/ml in FACS buffer) on ice for 1 hour. […] Following this secondary incubation, the cells were again washed 2x with ice-cold FACS buffer and resuspended in a final volume of 50 µL of FACS buffer + 0.25 µl/well propidium iodide (Fisher Scientific # BDB556463). Analysis was performed on a FACSCanto system (BD Biosciences) or iQue (Intellicyt), with sort gates drawn to exclude dead (i.e., propidium iodide positive) cells.
(§4) Data is presented as mean fluorescence intensity (MFI).
Experiment [4] deals with T1, human TMEM106B. Description: FACS A549, 1 ug/ml.
In experiment [5] the target is T1, human TMEM106B. The experiment is described as follows: FACS HEK+huTMEM, 10 ug/ml.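 Also: purified mouse IgG antibodies at 10 µg/ml bound to HEK293 cells transiently expressing human TMEM106B, measured by flow cytometry as median fluorescence intensity of propidium iodide negative live cells.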
Description: as §1
Experiment [6] deals with T1, human TMEM106B. Description: FACS, HEK293 transfectants. (A flow cytometer gives signals particle by particle.)
The target of experiment [7] is T1, human TMEM106B. The experiment is described as follows: FACS A549.
Experiment [8] deals with T1, human TMEM106B. The experiment is described as follows: FACS HEK+huTMEM, 0.01 ug/ml.
For a further experiment, the target named is T2, GST (Pierce) (UniProt P08515 1-218 = GST, limits assumed).
T2 construct: control for the GST part of the fusion protein; also called GST protein; Glutathione-S-transferase
Description: ELISA, coated GST.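 Also: ELISA on plates coated with GST alone at 1-10 µg/ml, antibodies applied at 100-1000x dilution, bound antibody detected by peroxidase substrate colour after acid stop.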 Background: In an ELISA, binding on a coated surface is turned into a signal by an enzyme label.

Experiment [9] concerns the target T1, human TMEM106B. Description: FACS HEK+huTMEM, 0.1 ug/ml.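 Also: flow cytometry binding of purified mouse IgG antibodies to HEK293 cells transiently expressing TMEM106B, read as median fluorescence intensity with propidium iodide positive dead cells gated out.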
Description: as §1
The target in experiment [10] is T1, human TMEM106B. The experiment is described as follows: FACS, HEK293 transfectants. The source holds these as a separate data set.
Experiment [11] concerns the target T3, cynomolgus (cyno) TMEM106B (cynomolgus, UniProt Q9NUM4 2-274 (human entry)).
T3 construct: on transiently transfected HEK293 cells
Description: FACS, HEK293 transfectants.

In experiment [12] the target is T4, GST-fusion human TMEM106B truncated (human).
T4 construct: also called GST-TMEM106B-truncated protein; GST-TMEM106B (truncated)
Description: ELISA, supernatant 100-1000x.
Description: (§5) Briefly, 96-well polystyrene plates were coated with 1-10 µg/ml of recombinant GST-TMEM106B-truncated protein or GST (Pierce) in PBS either at 370 Cfor 1-4 hours or overnight at 4 °C. Coated plates were then blocked with 5% BSA for 1-hour, washed 3×150 µL in TBST (Tris-buffered saline + 0.1% Tween20), and then the antibodies were added at various dilutions (100-1000x) in PBS. After 1-hour incubation (room temperature, with shaking), the plates were washed 3x150 µL in TBST. […] After a final set of washes (3×150µL in TBST), 100 µL of peroxidase substrate was added for 1 minute; the reaction was then quenched with 2N sulfuric acid (100 µL).

The target of experiment [13] is T1, human TMEM106B. The experiment is described as follows: FACS U251.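 Also: flow cytometry of cells exposed to antibody (purified at 10 µg/mL, or hybridoma supernatant) for 1 h on ice, with propidium iodide-positive dead cells gated out.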
Description: as §2, §3, §4
Experiment [14] deals with T4, GST-fusion human TMEM106B truncated. Description: array SPR, Ab immobilised.
Description: Binding kinetic characterization of the purified antibodies was performed by Carterra using a proprietary array SPR instrument (MX-96) as follows. Briefly, antibodies were prepared by diluting to 5 µg/ml in 10 mM Acetate, pH 4.5 (Carterra), at 150 µL/well and then made an additional dilution at 1:10 from there by titrating 11 µl into 100 µL. […] The chip was activated with 18 mM EDC (Sigma Bioxtra) and 4.5 mM S-NHS (Thermo Fisher) diluted in 100 mM MES, pH 5.5, for 7 minutes, and then antibodies were coupled for 10 minutes at 45 µL/minute. After coupling, the chip was returned to the MX-96 and quenched for 7 minutes using 1 M Ethanolamine pH 8.5 (Carterra).
Printed antibodies were profiled for their ability to bind GST-TMEM106B (truncated) protein (described above). Briefly, GST-TMEM106B (truncated) antigen was diluted to 18 µg/ml (500 nM of 36 kDa fusion protein) by mixing 2.7 µL of 2.0 mg/ml antigen into 298 µL Running buffer (HBS-EP+, Teknova with 1 mg/ml BSA, Sigma), and titrated 50 µl into 200 µl for 5-fold serial dilutions. In addition, binding to GST (Pierce) was assayed under the same conditions to determine the extent of any nonspecific binding of the anti-TMEM106B antibodies to GST portion of the TMEM106B-GST fusion protein. Duplicate measurements for each anti-TMEM106B antibody were taken to ensure reproducibility.
Experiment [15] has as its target T5, mouse TMEM106B (mouse, UniProt Q80X71 2-275).
T5 construct: on transiently transfected HEK293 cells, or natively expressed on mouse Neuro2a cells; also called moTMEM106B; murine TMEM106B
The experiment is described as follows: FACS Neuro2a.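 Also: flow cytometry of cells stained with antibody or hybridoma supernatant (purified antibody at 10 µg/ml) for 1 h on ice, propidium iodide–positive dead cells gated out.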

In experiment [16] the target is T5, mouse TMEM106B. Description: FACS, HEK293 transfectants.
The target of experiment [17] is T4, GST-fusion human TMEM106B truncated. Description: array SPR, Ab immobilised. The source holds these as a separate data set.

One may read the Kd as a measure of binding affinity in units of concentration. As usually defined, the koff is the first-order rate constant of dissociation. A word on the kon: it is the rate constant with which the complex forms. Read a high kon as fast association.

Several values for one entry are separate records, joined by “and”; a condition that tells them apart may be missing. Equal entries are not always repeated. Where two headings read alike, the source gives them in different places.
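For fold over negative controls in this document: hybridoma supernatants incubated 30 min on ice with human TMEM106B-expressing HEK293 cells, binding read as anti-mouse-APC median fluorescence on live cells, relative to secondary-antibody-only wells.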
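For fold-change over parental HEK293 in this document: flow cytometry binding of hybridoma supernatants to HEK293 cells transiently expressing human, cyno or mouse TMEM106B, read as anti-mouse-APC median fluorescence, live cells only, 30 min on ice.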
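For koff in this document: antibodies amine-coupled on an MX-96 chip, antigen flowed at 500 nM top concentration in 5-fold serial dilutions, GST alone run as nonspecific-binding control, duplicate measurements.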
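For kon in this document: antibodies amine-coupled on an MX-96 chip, antigen flowed at 500 nM top concentration in 5-fold serial dilutions, GST alone run as nonspecific-binding control, duplicate measurements.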

Description for GST (Pierce): as §5

B1: anti-TMEM106B antibody TM-4 (antibody, V domains shown)
VH: EVQVQQSGPVLVKPGASVKMSCKASGYTFTDYYMNWVKQSHGKNLEWIGVINPYNGGTSYHQKFKGKATLTVDKSSSTAYMELNSLTSEDSAVYYCARAATVVAGFDYWGQGTTLTVSS
VL: QAVVTQESALTTSPGETVTLTCRSSTGAVTTSNYANWVQEKPDHLFTGLIGGTNNRAPGVPARFSGSLIGDKAALTITGAQTEDEAIYFCVLWYSNHLVFGGGTKLTVL
For the molecule B1, the MFI in the experiment with human TMEM106B [1] is 415; with human TMEM106B [2], 443; in the experiment with human TMEM106B [3], 323; with human TMEM106B [4] it was 373; with human TMEM106B [5] it was 846; in the experiment with human TMEM106B [7], 916. Moreover, the MFI was found to be 282 with human TMEM106B [8], 304 with human TMEM106B [9] and 349 with human TMEM106B [13]. The “fold over negative controls” value with human TMEM106B [6] was more than 2 fold. The binding result (in the experiment with GST (Pierce); in experiment [12]) was “no binding” throughout. Further, the “fold-change over parental HEK293” value stood at 1.13 fold in the experiment with human TMEM106B [10] and 2.08 fold in experiment [11].

B2: anti-TMEM106B antibody TM-2 (antibody, V domains shown)
VH: HIQLVQSGPELKKPGETVKISCKASGYTFTEYPMHWVKQAPGKGFRWMGMIYTNTGEPTYAAEFKGRFAFSLETSASTGYLQINNLKNEDSATYFCVTAGYWGQGTLVTVSA
VL: QIVLTQSPAILSASPGEKVTMTCRASSSVSYIHWFLQKPGSSPKPWIYATSNLASGVPFRFIGSGSGTSYSLTISGVEAEDSATYYCQQWSSNPSTFGAGTKLELK
For B2, the MFI with human TMEM106B [1] stood at 29300; with human TMEM106B [2], 3360; with human TMEM106B [3], 2530; in the experiment with human TMEM106B [4], 1090; with human TMEM106B [5], 55500; with human TMEM106B [7] it was 1890. Besides, the MFI is 1440 with human TMEM106B [8], 2900 with mouse TMEM106B [15], 4730 with human TMEM106B [9] and 1410 with human TMEM106B [13]. Moreover, the Kd in experiment [14] was 0.9 nM and 1.2 nM; in experiment [17], approximately 1 nM. In addition, the koff in experiment [14] was 1.1e-05 s⁻¹ and 1e-05 s⁻¹. Also, the on-rate constant (kon) in [14] is 12000 M⁻¹ s⁻¹ and 8300 M⁻¹ s⁻¹. Also, in the experiment with human TMEM106B [6], the “fold over negative controls” value was more than 2 fold. In addition, the binding result in the experiment with GST (Pierce) is given as “no binding”. Further, the “fold-change over parental HEK293” value with human TMEM106B [10] came out at 9.84 fold; with mouse TMEM106B [16] it was 17.5 fold; in experiment [11] it was 32.3 fold.
